Assay results from article PMC3299984 (Structure(London, England:1993), 2012).

Molecular target: the molecule itself
Experiment: SEC

B1: Schistosoma mansoni peroxiredoxin I (thioredoxin peroxidase I), reduced (enzyme)
chain: MVLLPNRPAPEFKGQAVINGEFKEICLKDYRGKYVVLFFYPADFTFVCPTEIIAFSDQVEEFNSRNCQVIACSTDSQYSHLAWDNLDRKSGGLGHMKIPLLADRKQEISKAYGVFDEEDGNAFRGLFIIDPNGILRQITINDKPVGRSVDETLRLLDAFQFVEKHGEVCPVNWKRGQHGIKVNQK
stoichiometry N: 10
